# US20010034326A1 (UNIVERSITY OF NEW MEXICO, published 2001)
# Read-outs that look alike come from different tables or passages of the source. Bridge positions count the residues as written; N and C are the ends. Ends that are not written are not given here.
# How the values were obtained:
# [1] = target: T1, ICAM-1 expressed on cells (JY cells; stimulated endothelial cells) (UniProt P05362 28-532, limits assumed); experiment: cell-based or functional assay
# [2] = target: T1, ICAM-1 expressed on cells (JY cells; …); experiment: cell-based or functional assay; remark: listed apart in the source
# [3] = target: T2, ICAM-1 (intracellular adhesion molecule 1), as used in the ELISA of monovalent ICAM-1 binding (human, UniProt P05362 28-480, limits assumed); experiment: ELISA of monovalent ICAM-1 binding; for example inhibition of 84H10 binding to ICAM-1
# T2 construct: also called purified ICAM-1
# T2 sequence (P05362 28-480 limits assumed): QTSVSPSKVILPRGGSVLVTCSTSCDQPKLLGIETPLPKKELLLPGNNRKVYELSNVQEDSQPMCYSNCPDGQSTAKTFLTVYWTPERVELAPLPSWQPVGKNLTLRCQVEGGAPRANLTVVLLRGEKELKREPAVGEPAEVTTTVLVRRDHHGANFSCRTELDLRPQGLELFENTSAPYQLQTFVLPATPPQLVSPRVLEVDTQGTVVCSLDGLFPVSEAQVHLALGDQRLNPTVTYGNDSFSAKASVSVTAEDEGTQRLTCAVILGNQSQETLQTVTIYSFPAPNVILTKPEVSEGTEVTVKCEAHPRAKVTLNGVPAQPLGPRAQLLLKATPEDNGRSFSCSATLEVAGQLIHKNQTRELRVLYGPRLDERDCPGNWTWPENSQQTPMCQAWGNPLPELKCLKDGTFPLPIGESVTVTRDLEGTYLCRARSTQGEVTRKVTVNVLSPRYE
# [4] = target: T1, ICAM-1 expressed on cells (JY cells; …); experiment: cell-based or functional assay; remark: listed apart in the source
# [5] = target: T1, ICAM-1 expressed on cells (JY cells; …); experiment: cell-based or functional assay; remark: listed apart in the source
# T1 sequence (P05362 28-532 limits assumed): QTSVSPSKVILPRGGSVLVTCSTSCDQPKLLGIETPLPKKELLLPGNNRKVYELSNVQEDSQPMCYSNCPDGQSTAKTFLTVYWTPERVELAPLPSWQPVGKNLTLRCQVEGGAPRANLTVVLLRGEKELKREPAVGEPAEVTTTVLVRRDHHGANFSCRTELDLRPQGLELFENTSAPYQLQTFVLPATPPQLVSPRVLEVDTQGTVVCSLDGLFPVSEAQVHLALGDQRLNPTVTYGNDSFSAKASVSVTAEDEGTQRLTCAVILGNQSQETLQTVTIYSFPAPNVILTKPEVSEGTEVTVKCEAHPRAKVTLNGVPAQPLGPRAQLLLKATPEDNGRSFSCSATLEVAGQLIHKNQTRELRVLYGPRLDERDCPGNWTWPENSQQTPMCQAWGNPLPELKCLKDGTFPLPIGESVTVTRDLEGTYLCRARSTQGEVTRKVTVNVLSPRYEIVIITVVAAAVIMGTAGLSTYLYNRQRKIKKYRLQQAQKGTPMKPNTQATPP
Binder,Percent Inhibition [1],Percent JY Aggregation [1],Percent Inhibition [2],Percent JY Aggregation [2],other results
"CLLRMRSLC (disulfide 1-9) [CLLRMRSLC (SEQ ID NO: 47), cyclic disulfide-linked peptide]",-12 percent,61 percent,–,–,–
"CLLRARSIC (disulfide 1-9) [CLLRARSIC (SEQ ID NO: 37), cyclic disulfide-linked peptide]",–,–,5 percent,72 percent,–
"CLIRMRSAC (disulfide 1-9) [CLIRMRSAC (SEQ ID NO: 44), cyclic disulfide-linked peptide]",93 percent,4 percent,–,–,–
"CLLRMRSVC (disulfide 1-9) [CLLRMRSVC (SEQ ID NO: 48), cyclic disulfide-linked peptide]",92 percent,4 percent,–,–,–
"CILRMRSAC (disulfide 1-9) [CILRMRSAC (SEQ ID NO: 43), cyclic disulfide-linked peptide]",92 percent,4 percent,–,–,–
"CLLRMRSIC (disulfide 1-9, Synthesized by Biopeptide; consensus derived from phage display on ICAM-1) [consensus peptide CLLRMRSIC (SEQ ID NO: 1), cyclized in the disulfide-linked form]",45 percent,30 percent,46 percent,41 percent,"IC50 [3]: 0.25 µM; IC50, inhibition of JY cell aggregation [4]: 500 µM; IC50 for cell aggregation [4]: 800 µM; Cells/mm^2, firm attachment of neutrophils to stimulated endothelial cells in a parallel plate flow chamber [5]: 439 cells/mm^2; Percent Inhibition of firm attachment of neutrophils to stimulated endothelial cells [5]: 47 percent"
"CLVRMRSAC (disulfide 1-9) [CLVRMRSAC (SEQ ID NO: 41), cyclic disulfide-linked peptide]",0 percent,55 percent,–,–,–
"CLLKMRSAC (disulfide 1-9) [CLLKMRSAC (SEQ ID NO: 45), cyclic disulfide-linked peptide]",94 percent,3 percent,–,–,–
CLRLSRIMC (disulfide 1-9) [randomized cyclic peptide CLRLSRIMC (SEQ ID NO: 56)],-3.6 percent,57 percent,4 percent,74 percent,"Cells/mm^2, firm attachment of neutrophils to stimulated endothelial cells in a parallel plate flow chamber [5]: 617 cells/mm^2; Percent Inhibition of firm attachment of neutrophils to stimulated endothelial cells [5]: 25 percent"
"CLARMRSIC (disulfide 1-9) [CLARMRSIC (SEQ ID NO: 35), cyclic disulfide-linked peptide]",–,–,9 percent,69 percent,–
"CVLRMRSAC (disulfide 1-9) [CVLRMRSAC (SEQ ID NO: 42), cyclic disulfide-linked peptide]",56 percent,24 percent,–,–,–
"CLLRMRSAC (disulfide 1-9) [CLLRMRSAC (SEQ ID NO: 40), cyclic disulfide-linked peptide]",–,–,61 percent,29 percent,–
"CLLRMKSAC (disulfide 1-9) [CLLRMKSAC (SEQ ID NO: 46), cyclic disulfide-linked peptide]",90 percent,6 percent,–,–,"Cells/mm^2, firm attachment of neutrophils to stimulated endothelial cells in a parallel plate flow chamber [5]: 283 cells/mm^2; Percent Inhibition of firm attachment of neutrophils to stimulated endothelial cells [5]: 66 percent"
"CLLRMRAIC (disulfide 1-9) [CLLRMRAIC (SEQ ID NO: 39), cyclic disulfide-linked peptide]",–,–,27 percent,56 percent,–
"CLLRMASIC (disulfide 1-9) [CLLRMASIC (SEQ ID NO: 38), cyclic disulfide-linked peptide]",–,–,11 percent,68 percent,–
"CALRMRSIC (disulfide 1-9) [CALRMRSIC (SEQ ID NO: 34), cyclic disulfide-linked peptide]",–,–,7 percent,71 percent,–
